Experimental data as given in the RNAGym collection of RNA variant scans (doi:10.1073/pnas.2313332121).
Fewer inactive variants are shown than the library holds.

B1: TPR 5TU (parent)
chain: GGAUCUUCUCGAUCUAACAAAAAAGACAAAUCUGCCACAAAGCUUGAGAGCAUCUUCGGAUGCAGAGGCGGCAGCCUUCGGUGGCGCGAUAGCGCCAACGUUCUCAACUAUGACACGCAAAACGCGUGCUCCGUUGAAUGGAGUUUAUCAUG

Variants of: B1
Assay: polymerase ribozyme fitness, log enrichment relative to wild type (log ratio); higher = more active; in vitro selection for triplet polymerase activity
Method in brief: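 Input and output libraries were sequenced on Illumina after a single in vitro selection round, run in triplicate on PCR-built, transcribed mutant libraries of each subunit of a heterodimeric triplet polymerase ribozyme. Selection annealed libraries to a biotinylated primer, the partner subunit and triplets, incubated them frozen at −7 °C, then gel-excised extended constructs for streptavidin-bead capture and RT-PCR. Genotypes with ≥10 input reads and ≥1 read per output were kept. Fitness is the logarithm, taken in base 2, of genotype enrichment divided by wild-type enrichment, using inverse-variance-weighted replicate averages.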

| Variant | polymerase ribozyme fitness (log ratio) |
| --- | --- |
| C38A G58C C87U | -0.072 |
| C38A U55A | -0.143 |
| A37G C51U A66U G83A U151G | ≤ -4.2 |
| C38G C54U C57U G141C | -2.86 |
| A37U G92C G133C | -3.52 |
| A37G C96U C105G | -3.63 |
| C36U C54U C87U C96G U146G G152A | ≤ -4.2 |
| A37G U78A C93G C116U | ≤ -4.2 |
| A37G A41C G71A U90A C96U | ≤ -4.2 |
| A37G U77A C87A C99U G140C A147U | ≤ -4.2 |
| A37G U45A C96U | ≤ -4.2 |
| A37U A121G G152U | -3.84 |
| C36U C69G A73G C87A G100U G112C G141C | ≤ -4.2 |
| C38A C57G U77G C79U A91G | ≤ -4.2 |
| C38G A40U U55A U56A C87U A89C | -3.99 |
| C38A A89C C93G C95G C108U U135C | ≤ -4.2 |
| C38A A64G C69G C87U U134A U151C | ≤ -4.2 |
| C38A G86C | -3.27 |
| A37C G86A C103A A120U | ≤ -4.2 |
| A37C U55A G133C U144A | -2.6 |
| A37C C57A | 0.0979 |

| Variant | polymerase ribozyme fitness (log ratio) |
| --- | --- |
| C36U A40G C43G U55A A91C G126A G141U | ≤ -4.2 |
| A37U U77G C96A A106G | ≤ -4.2 |
| C36U G94A C125A | -1.63 |
| A37G C51U C72U C95A A138U G143U | ≤ -4.2 |
| C38A A41U A52C | -2.5 |
| A37C A47C | -1.24 |
| A37G A40U C54G A60G | -2.66 |
| C38A U148A | -4.04 |
| C38A C76A C93U G117A | -1.25 |
| A37C A47U G58A U61G A91G A107C A113G A138U | ≤ -4.2 |
| C38A G84A U148G | ≤ -4.2 |
| C36U A52U C75G G88C C105A C114G A115G | ≤ -4.2 |
| C38A G94U G143U | ≤ -4.2 |
| A37G U45A C76G U82G C93G A113C G136U | ≤ -4.2 |
| C38G G133C A147C | -2.55 |
| A37G A52G U55A U56A C85U C103U U145A | -3.09 |
| C36U C95U | -1.98 |
| A37G C54U U55A G86A A89U U109G A138G | ≤ -4.2 |
| C36U A64C G136A U145C A147C | ≤ -4.2 |
| C36U C54A G65C G67U G68U C95G A110C A113U C116U G143C C149A | ≤ -4.2 |
| A37G U44A A52C G86U C95U U101G U144C | ≤ -4.2 |

| Variant | polymerase ribozyme fitness (log ratio) |
| --- | --- |
| C38A C93G C123G | -3.67 |
| A37U U55A G58C A142U | -2.45 |
| C36U A66G G112A A142U | ≤ -4.2 |
| A37C C38G C85U | -1.28 |
| C38G A40G A49G A60U C93A A121G | ≤ -4.2 |
| C36U A60C C63U C103G | ≤ -4.2 |
| C38G G42U G68A U77A C96U G141U | ≤ -4.2 |
| C36U C54G A66C G84U C95A U101G | ≤ -4.2 |
| C38G C43U C87A C132G U135G G136C U146A | ≤ -4.2 |
| C38G C54G U82C U146A | -1.88 |
| C36G G86A G117U U130A G140A | ≤ -4.2 |
| A37G | -1.24 |
| A37U | -1.11 |
| A37C | 0.064 |
| C38A C63A C95U A106G | -1.81 |
| C36U C96G | -2.56 |
| A37C G70A C85A G92A C93A | ≤ -4.2 |
| A37C G48A C51U G86C G88A | ≤ -4.2 |
| A37C A60C C85U G126C U146C | -2.23 |
| C38A G94A C123U | -0.611 |
| A37C C38U U145C | 0.0837 |

| Variant | polymerase ribozyme fitness (log ratio) |
| --- | --- |
| C36U C87U G126A | -2.05 |
| A37G A73U G94A A97C G124A | ≤ -4.2 |
| C38A A47C C96A | -1.63 |
| C36U G92C C116U C118U U144C | ≤ -4.2 |
| C36U A52G U61A C95A A122U U144A | ≤ -4.2 |
| A37C G70C C87U U127C | ≤ -4.2 |
| A37U C85A C93U G141C A147C | ≤ -4.2 |
| C38G G42C U61G G86U | ≤ -4.2 |
| A37C C54U A60C U61G C96U C99A G112A A115G | ≤ -4.2 |
| C38G C85A C116A A120G | -2.28 |
| C38G A120U G140C A142C | ≤ -4.2 |
| A37U U134G | -2.86 |
| C36U G46U G86U C105A G124U | -3.12 |
| A37C C96G U101G A150C U151A | ≤ -4.2 |
| A37G A47U G81C C95G U102G A120U U134C U135G A137C | ≤ -4.2 |
| C38G A89C C93A C95G U109C | ≤ -4.2 |
| C38G A41G U55A G83A G143A | -1.78 |
| C38A C93G C96U A115G G117A | ≤ -4.2 |
| C38A C87U A98G A106C C125A U135A C149A | ≤ -4.2 |
| C38A G42C U55G C69U U90G U146C | ≤ -4.2 |
| A37G A39U G50A A142U | ≤ -4.2 |
